This is an account of results in patent publication US11938195B2, “Upconversion nanoparticle peptide conjugates” (BP InnoMed Limited, priority 2021, dated 2024).

Where no end group is shown, it is not given here. [ ]: non-standard residue; d: D form. Ahx = NCCCCCC(=O)O

Series [1] can be described thus: Peptide release from nanoprobes under various time intervals (UV-vis absorbance). It counts as physicochemical. The settings on record: 0.5 mg/mL. The source says:
The stability and capability of cleavage of the pH linker were also studied. […] More importantly, TEM images of UCNP-P5 at different pH buffers were observed and investigated in FIG. 1, providing direct evidence on pH-responsive peptide release from UCNP.

Series [2] can be described thus: Peptide release from nanoprobes under various pH buffers (UV-vis absorbance). The settings on record: 24 h in buffer, 0.5 mg/mL. It counts as physicochemical. The source says: The stability and capability of cleavage of the pH linker were also studied. […] More importantly, TEM images of UCNP-P5 at different pH buffers were observed and investigated in FIG. 1, providing direct evidence on pH-responsive peptide release from UCNP. […]

For series [3], the target named is EBNA1 (DNA-binding domain fragment of a.a.468-607) (Epstein-Barr virus, UniProt P03211). Nature of the series: EBNA1 dimerization/oligomerization inhibition assay. It counts as biochemical. The note with it: 0.3 mg/mL nanoprobe, 90 mg EBNA1, DSS crosslinking, SDS gel. As to the method: EBNA1 dimerization/oligomerization inhibition assays were performed to reveal the ability of interrupting EBNA1 dimerization/oligomerization in the presence of the previous nanoprobe UCNP-P4 and the nanoplatforms in situ.
EBNA1 (DNA-binding domain fragment of a.a.468-607), sequence (P03211 468-607): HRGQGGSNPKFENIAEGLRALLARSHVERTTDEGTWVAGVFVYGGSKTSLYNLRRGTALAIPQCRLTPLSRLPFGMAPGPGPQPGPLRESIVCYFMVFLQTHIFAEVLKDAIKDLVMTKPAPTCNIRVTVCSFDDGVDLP
(conc.: 0.3 mg/mL) at 4° C. overnight. Then, 2 mM disuccinimidyl suberate (DSS) was added to allow the samples to undergo crosslinking reaction at room temperature for 30 min. The samples were run and separated on an SDS-denaturing gel and proteins were detected using Coomassie Blue staining. PBS buffer was used as control group.

Series [4] has as its system p65. Nature of the series: Western blot of p65 (NF-κB) in LCL3 cells. It counts as cell-based. The source says: (§1) NF-κB signaling pathway is critical for the survival of EBV-infected tumor cells. Here we investigated if our nanoprobes could affect this oncogenic pathway. EBV-positive LCL3 and C666 cells were used as models, EBV-negative HK1 cells were used as control and Western blot was used to analyze the protein expression of p65, a major transcription factor in the NF-κB family. […] GAPDH and Histone are regarded as internal standards in cytosolic and nuclear fractions, respectively. […] This is consistent with the cellular uptake results.
(§2) Western blotting: EBV-positive C666, LCL3 and EBV-negative HK1 cell pellets were treated with phosphatase and protease inhibitors at 0-4° C. for 30 min. The total protein concentrations were calculated by protein absorbance. The protein was resolved by sodium dodecyl sulfate-polyacrylamide gel electrophoresis (SDS-PAGE) and transferred to cellulose filter membranes. The membranes were blocked with 3% BSA in Tris-buffered saline in 0.1% Tween 20 (TBST) for 1 h with gentle shaking and subsequently incubated with primary antibodies (1:1000) in 3% BSA in TBST at 4° C. for overnight. After rinsing with TBST buffer three times, the blots were then incubated with corresponding secondary anti-rabbit antibody (1:6000) for 1 h. After that, the blots were rinsed again with 3% BSA in TBST for 1 h shaking at room temperature. Lastly, the density of bands was determined by image analysis system after washing with TBST buffer three times.

The subject of series [5] is p65. Nature of the series: Western blot of p65 (NF-κB) in C666 cells. It counts as cell-based.
Source text: as §1, §2
On the technique in general: In western blotting, separated proteins are transferred to a membrane and probed.

In the next series the test system is EBV-positive C666 cells. Nature of the series: Two-photon confocal imaging, C666. It counts as cell-based. The note with it: mainly from the nuclei, 24 h incubation. The method, then: After the study of cellular uptake, fluorescent confocal microscopy was used to study the sub-cellular localization with the same set of EBV-/LMP1-positive and -negative cell lines. All these cell lines were treated with as-prepared samples for different time intervals of 1 h, 3 h, 6 h, 12 h and 24 h. Fluorescence signals in the cells were imaged under 980 nm excitation.
The cells were then co-stained with 0.05 mM nuclear dye DRAQ5 for 0.5 h for confocal imaging with a Leica SP8 confocal microscope equipped with a coherent femtosecond laser (690-1050 nm), argon laser (432 nm, 457 nm and 488 nm), He—Ne laser (632 nm), UV lamp. A stage-top cell culture chamber was also used to maintain the atmospheric conditions of 2-7% CO2 and a temperature of 37° C.

The next series relates to C666 derived xenografts. Nature of the series: In vivo suppression assay, C666 xenograft. The source says:
To determine the antitumor efficacy of the new nanoprobes in vivo, their therapeutic effects were investigated in C666 and HeLa derived xenografts in BALB/c nude mice. The mice were randomly divided into five groups: (1) control (PBS), (2) UCNP, (3) UCNP-P5, (4) UCNP-P6, (5) UCNP-P7. In order to recapitulate the clinical setting of drug delivery, intravenous injection (via a tail vein) was used to deliver these agents to the immunocompromised animal.
In vivo suppression assays: EBV-positive C666 and EBV-negative HeLa cells were suspended in 200 μL of serum-free RMPI 1640 and DMEM respectively. Female BALB/c nude mice (6-8 weeks) which obtained from HKU were then injected with the cells in the right flank. Intravenous injections were performed when the average tumor volumes reached ˜200 mm^3. 0.25 mg/tumor dose of UCNP and UCNP-Pn [n=5, 6 and 7 (SEQ ID NO: 5, 6, 7)] in […] PBS buffer were injected through tail vein of mice using a 24-gauge syringe. Mice injected with the same volume of PBS buffer served as control. The body weight and tumor volumes of the mice were measured three times per week; in which the latter is calculated by (L×W^2)/2, where L and W are the longer and shorter tumor dimensions respectively. Intravenous injection at the tail vein were performed twice a week and the mice were sacrificed after 33-day experimental period; the tumors were extracted and weighed. The treatment groups are unknown to the investigators for the experimental and data analysis processes. The animal experiments conducted were approved by the Department of Health of the HKSAR Government. All animal procedures are within the Guidelines for Care and Use of Laboratory Animals of HKBU and approved by the Animal Ethics Committee of HKBU.
Hematoxylin and eosin (H&E) staining: In general, the transplanted C666 and HeLa derived tumor tissues were collected and fixed with formalin, followed by embedding in paraffin. The histologic sections were then stained with hematoxylin and eosin. Other major organ tissues (heart, liver, spleen, lung, kidney, brain) were conducted in the same procedures.

As for “UCNP-P6: UCNP is NaGdF4:Yb^3+, Er^3+@NaGdF4 and the plurality of polypeptides is Ahx-RrRKGGYFMVFGGFWLY (SEQ ID NO: 6) ([Ahx]R[dR]RKGGYFMVFGGFWLY; also: UCNP conjugate)”, the Peptide release rate in series [1] (1 h) was determined as 0%; in series [1] (3 h), 0%; in series [1] (6 h), 0.3%; in series [1] (12 h), 0.8%; in series [1] (24 h), 1.4%; in series [1] (3 day) it was 1.9%. For the same substance, the Peptide release rate turned out to be 2.9% in series [1] (5 day); 5.9% in series [1] (7 day); 83.3% in series [2] (pH 5.0); 34.1% in series [2] (pH 5.5); 32.2% in series [2] (pH 6.0); 21.5% in series [2] (pH 6.5). The Peptide release rate in series [2] (pH 7.0) is on record as 4.6%; in series [2] (pH 7.4), 0%. Also, the “Inhibition of EBNA1 dimerization/oligomerization” value in series [3] is “eradicate all 90 mg EBNA1 dimers and oligomers”. Further, the “Reduced p65 expression level, cytosolic fraction” value in the series on p65 [4] is recorded as 85%; with p65 [5] it was 87%. Further, the “Responsive emission enhancement (lambda scan)” value in the series with EBV-positive C666 cells was “two-fold”. Further, in the series with C666 derived xenografts (12.5 mg/kg, intravenous (tail vein), twice a week, 33 days), the “Effect on average tumor size” value is listed as “no obvious effect on the tumor size”. For the same substance, the Body weight entry in the series on C666 derived xenografts (C666 tumor-bearing mice, 33-day experimental period) is “slight reduction of body weight”.
